In the experiment the target is T1, short SARS-CoV-2 peptide (10 residues) of the ITC (SARS-CoV-2).
T1 chain: FKEELDKYFK
The experiment in a line: ITC.

The values below come from article PMC9284671 (Structure (London, England : 1993), 2022).

B1: WS6 (monoclonal antibody, IgG) (antibody, V domains shown)
VH: EVQFQQSGTVLARPGASVKMSCKASGYTFTNYWIHWVKQRPGQGLEYIGGTYPGNGDTTYNQKFKGKAKVTAVTPTSTAYMDLSSLTNEDSAVYYCTRTGSYFDYWGQGTTLTVSS
VL: QIVLTQSPAIMSASPGEKVTISCSATSSVSYIYWYQQRPGSSPKPWIYRTSNLASGVPVRFSGSGSGTSYSLTISNMEAEDAATYYCQQYQSYPPTFGAGTKLELK
As a reminder, the Kd is the constant that tells how readily two partners part at equilibrium. A high value points to lower affinity. In the case of B1, the Kd worked out at 22 nM.
